The values below come from patent publication US20220056091A1.

The assay addresses T1, Fc fused human IL-18BP isoform a (IL-18BPa) (human), O95998.
T1 chain: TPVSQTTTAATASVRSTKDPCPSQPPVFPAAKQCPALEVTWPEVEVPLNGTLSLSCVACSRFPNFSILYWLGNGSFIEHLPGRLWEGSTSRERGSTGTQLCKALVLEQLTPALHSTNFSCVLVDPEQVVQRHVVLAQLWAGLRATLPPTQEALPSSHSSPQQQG
Description: SPR, Fc-IL-18BPa captured, 1:1 model. The settings on record: remark: other sources report otherwise. On the technique in general: In SPR one partner is held on a chip, and binding of the other changes the refractive index at the surface.

B1: Modified IL-18 polypeptide of SEQ ID NO: 2 (E06K, K53A, S55A), Q14116 37-193 (ligand)
chain: YFGKLKSKLSVIRNLNDQVLFIDQGNRPLFEDMTDSDCRDNAPRTIFIISMYADAQPRGMAVTISVKCEKISTLSCENKIISFKEMNPPDNIKDTKSDIIFFQRSVPGHDNKMQFESSSYEGYFLACEKERDLFKLILKKEDELGDRSIMFTVQNED
In the case of B1, the Kd (usually the free concentration of one partner at which half of the binding sites on the other are occupied at equilibrium, for simple one-to-one binding) amounted to 323 nM; the off-rate constant (koff) (in general, the first-order rate constant of dissociation) amounted to 0.0154 s⁻¹; the kon (as a rule, the rate constant with which the complex forms) came to 47800 M⁻¹ s⁻¹.

B2: Modified IL-18 polypeptide of SEQ ID NO: 3 (Y01G, F02A, E06K, M51G, K53A, D54A, S55A, T63A), Q14116 37-193 (ligand)
chain: GAGKLKSKLSVIRNLNDQVLFIDQGNRPLFEDMTDSDCRDNAPRTIFIISGYAAAQPRGMAVAISVKCEKISTLSCENKIISFKEMNPPDNIKDTKSDIIFFQRSVPGHDNKMQFESSSYEGYFLACEKERDLFKLILKKEDELGDRSIMFTVQNED
As for B2, the Kd is more than 1000 nM.

B3: Modified IL-18 polypeptide of SEQ ID NO: 17 (E06K, K53A, S55A, C38S, C68S, C76S, C127S, K70C), Q14116 37-193 (ligand)
chain: YFGKLKSKLSVIRNLNDQVLFIDQGNRPLFEDMTDSDSRDNAPRTIFIISMYADAQPRGMAVTISVKSECISTLSSENKIISFKEMNPPDNIKDTKSDIIFFQRSVPGHDNKMQFESSSYEGYFLASEKERDLFKLILKKEDELGDRSIMFTVQNED
Turning to B3, the Kd is 1000 nM.
